Among the data in article PMC11251166 are Kd values, retold here.

The Kd is the free concentration of one partner at which half of the binding sites on the other are occupied at equilibrium, for simple one-to-one binding. A higher Kd goes with a looser complex.

The assay has as its target ADP-ribosylated ubiquitin (ADPR-Ub) (UniProt P0CG48). As to the kind of experiment: ITC.

Substance MavL_N322A yielded a Kd of 5.96 µM.
